The values below come from patent US20240076389A1.

Sequences and labels used below:
B1: NRC-sdAb003-Fc (VHH-human IgG1 Fc fusion) (Fc fusion, not shown: a dimerising Fc or GST)
chain: QVQLVESGGGLVQAGGSLRLSCAASGVTLDYTAIGWFRQAPGKERELVAAITSGGNTDYAESAKGRFRISRDNSKNTIYLQMNSLKPEDTGVYYCAARRGGARGEYDYWDQGTQVTVSS
B2: hFC-F107-10G1 (antibody, human IgG1, kappa, V domains shown)
VH: EVNLVESGGGVVKPGASLKLSCEASGFTFSNYGMSWVRQTSDKRLEWVASISGGGGRTYYLDNVKGRFIISRENAKNTLYLQMSSLKSEDTALFYCARGARASYFAMDYWGQGSSVTVSS
VL: VIVMTQSHKFMSTSVGDRVSITCKASQDVTTAVAWYQQKPGQSPKLLIYWASTRHTGVPDRFTGSGSGTDYSLTISNVQTEDLAFYYCQQHFTTPLTFGAGTKLELKR
B3: NRC-sdAb001-Fc (VHH-human IgG1 Fc fusion) (Fc fusion, not shown: a dimerising Fc or GST)
chain: QVKLEESGGGLVQAGGSLRLSCTASASISSFDIMGWYRQAPGKQRELVAAITTLDIANYRDSVKGRFTISRDNAKNTVYLQMDSLKPEDTARYHCAAFQSDQNYWGQGTQVTVSS
B4: NRC-sdAb002-Fc (VHH-human IgG1 Fc fusion) (Fc fusion, not shown: a dimerising Fc or GST)
chain: QVQLVDSGGGLVQAGGSLRLSCATSTRTVSSAVMAWFRQAPEKVRDFVGFITNSGNILYDDSVKGRFTISRDNAQNTVYLQMNSLKPEDTAVYYCAAKWSFSSGYGDLRRAAMYDYWGQGTQVTVSS
B5: hFc-sdAb006-DM1 (Fc fusion, not shown: a dimerising Fc or GST)
chain: QVKLEESGGGLVQAGASLRLSCVASESIFGFNTMGWYRQAPGNERELVASISNSKRTMYADSVKGRFTISRDNAKNTVNLQMNNLKPEDTAVYYCRAWGIITSATVYWGQGTQVTVSS
modifications: DM1 conjugate (SMCC linker); sites not given
B6: hFc-sdAb008-DM1 (Fc fusion, not shown: a dimerising Fc or GST)
chain: QVKLEESGGGLVQAGGSLRLSCAASGSSGMINTMGWYRQAPGKQRELVARRSTGGTTNYADSVKGRFTISRDDANNTVYLQMNSLKPEDTAVYYCAIIWRTSDLTGRFNTWGQGTQVTVSS
modifications: DM1 conjugate (SMCC linker); sites not given
B7: hFc-sdAb005-DM1 (Fc fusion, not shown: a dimerising Fc or GST)
chain: QVKLEESGGGLAQAGGSLRLSCAASGSISSINTIGWFRQAPGKQRELVAASDSGANRNYADSVKGRFTISRDNAKNTVYLQMNNLKPEDTAIYYCRAWGTGTISTMYWGQGTQVTVSS
modifications: DM1 conjugate (SMCC linker); sites not given
B8: hFc-sdAb001-DM1 (Fc fusion, not shown: a dimerising Fc or GST)
chain: QVKLEESGGGLVQAGGSLRLSCTASASISSFDIMGWYRQAPGKQRELVAAITTLDIANYRDSVKGRFTISRDNAKNTVYLQMDSLKPEDTARYHCAAFQSDQNYWGQGTQVTVSS
modifications: DM1 conjugate (SMCC linker); sites not given

Sequence of huAXL-ECD displayed on yeast (human) (P30530 26-449, form in doubt): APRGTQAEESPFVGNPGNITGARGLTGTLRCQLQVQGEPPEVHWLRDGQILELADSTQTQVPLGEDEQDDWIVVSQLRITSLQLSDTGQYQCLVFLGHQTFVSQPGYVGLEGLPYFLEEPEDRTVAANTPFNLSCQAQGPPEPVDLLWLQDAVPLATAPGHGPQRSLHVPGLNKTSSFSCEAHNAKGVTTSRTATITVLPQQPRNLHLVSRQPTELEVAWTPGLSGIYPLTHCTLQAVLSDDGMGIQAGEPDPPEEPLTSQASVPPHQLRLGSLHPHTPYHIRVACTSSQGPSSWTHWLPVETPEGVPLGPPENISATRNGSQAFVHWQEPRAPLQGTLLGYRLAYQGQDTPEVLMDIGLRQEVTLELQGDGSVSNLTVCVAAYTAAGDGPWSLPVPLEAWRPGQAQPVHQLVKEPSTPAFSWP

The first experiment concerns the target huAXL-ECD displayed on yeast (human) (UniProt P30530). Nature of the experiment: yeast surface display ELISA, non-denatured yeast, goat anti-human F(ab')2-HRP. In general terms: In an ELISA, binding on a coated surface is turned into a signal by an enzyme label.
On to B1, for which the yeast ELISA signal normalized to myc expression level was determined as 0.659. The same measure, in the same setting: then B2, with 1.39; and B3, with 1.03. B4 yielded a yeast ELISA signal normalized to myc expression level of 0.882.

The target in another experiment is human AXL expressed on the cell surface of tumor cell lines (human) (UniProt P30530). Nature of the experiment: cell-based or functional assay.
Sequence of human AXL expressed on the cell surface of tumor cell lines (human) (P30530 26-894): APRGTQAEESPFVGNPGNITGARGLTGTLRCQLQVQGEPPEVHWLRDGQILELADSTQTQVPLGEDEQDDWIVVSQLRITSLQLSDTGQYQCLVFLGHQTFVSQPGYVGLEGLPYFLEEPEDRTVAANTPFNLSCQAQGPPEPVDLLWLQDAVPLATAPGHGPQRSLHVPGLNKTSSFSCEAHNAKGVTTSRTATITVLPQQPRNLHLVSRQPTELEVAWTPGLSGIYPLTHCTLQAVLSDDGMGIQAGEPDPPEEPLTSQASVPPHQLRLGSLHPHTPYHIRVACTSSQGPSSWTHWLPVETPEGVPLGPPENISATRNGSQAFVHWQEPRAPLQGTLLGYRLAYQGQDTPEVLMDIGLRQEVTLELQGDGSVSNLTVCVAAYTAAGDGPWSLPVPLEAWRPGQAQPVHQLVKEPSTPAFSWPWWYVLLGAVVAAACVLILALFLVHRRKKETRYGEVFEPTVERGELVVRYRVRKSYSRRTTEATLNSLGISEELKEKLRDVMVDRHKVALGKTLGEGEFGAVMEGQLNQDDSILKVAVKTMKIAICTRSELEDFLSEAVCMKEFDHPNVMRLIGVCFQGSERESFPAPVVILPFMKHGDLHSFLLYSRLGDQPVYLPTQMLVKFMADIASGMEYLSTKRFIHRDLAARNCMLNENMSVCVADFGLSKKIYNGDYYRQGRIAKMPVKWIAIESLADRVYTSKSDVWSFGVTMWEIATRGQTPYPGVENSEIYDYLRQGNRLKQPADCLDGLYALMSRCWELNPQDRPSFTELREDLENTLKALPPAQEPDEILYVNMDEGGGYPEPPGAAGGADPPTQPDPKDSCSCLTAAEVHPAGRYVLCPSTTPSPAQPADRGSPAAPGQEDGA
B5 returned an IC50 of growth inhibition (CellTiterGlo, 5 days) of NCI-H292 cells, -Gas6 of 2.71 nM. Regarding B6, the IC50 of growth inhibition (CellTiterGlo, 5 days) of NCI-H292 cells, -Gas6 came out at 0.034 nM and the IC50 of growth inhibition of NCI-H292 cells, +Gas6 (2 µg/mL) amounted to 0.24 nM. The corresponding values for B7 are 6.66 nM and 3.78 nM.

In turn, B8 returned an IC50 of growth inhibition (CellTiterGlo, 5 days) of NCI-H292 cells, -Gas6 of 0.887 nM.
